Experimental data taken from US20040096901A1.
Where “and” joins values, the source holds several entries; their conditions need not be identical. Equal entries are not always repeated.

Target: CD45 antigen (leukocyte common antigen), human, on cells (human) (UniProt P08575)
Assay: cell-based or functional assay

- % of Inhibition of primary MLR (responder #211 CD4, stimulator #219 CD3), 10 ug/ml mAb: 63.5%
- % of Inhibition of primary MLR (responder #220 CD4, stimulator #219 CD3 depl.), 10 ug/ml mAb: 63.1%
- % of Inhibition of primary MLR (responder #227 CD4, stimulator #220 CD3 depl.), 10 ug/ml mAb: 66%
- % of Inhibition of primary MLR (responder #229 CD4, stimulator #219 CD3 depl.), 10 ug/ml mAb: 50.8%
- IC50 for the inhibition of primary MLR (cellular activity IC50): 0.87 nM and 0.13 µg/ml
B1: chimeric anti-CD45RO/RB mAb "candidate mAb" (antibody, human IgG1, kappa, V domains shown)
VH: EVQLQQSGPELVKPGASVKMSCKASGYTFTNYIIHWVKQEPGQGLEWIGYFNPYNHGTKYNEKFKGRATLTADKSSNTAYMDLSSLTSEDSAIYYCARSGPYAWFDTWGQGTTVTVSS
VL: DILLTQSPAILSVSPGERVSFSCRASQNIGTSIQWYQQRTNGSPRLLIRSSSESISGIPSRFSGSGSGTDFTLSINSVESEDIADYYCQQSNTWPFTFGSGTKLEIKR
